Key:
TDP-43 1-414 = TDP-43 1-414 (UniProt Q13148); assay: sedimentation assay, supernatant by SDS-PAGE; conditions: reference: unmodified TDP1-414; sites S48
TDP-43 NTD, 1-80 [1] = target: TDP-43 NTD, 1-80 (UniProt Q13148); assay: BS3 crosslinking, SDS-PAGE; conditions: reference: unmodified TDP1-80; sites S48
TDP-43 NTD, 1-80 [2] = target: TDP-43 NTD, 1-80 (UniProt Q13148); assay: size exclusion chromatography; conditions: reference: unmodified TDP1-80; sites S48

Row | Substance | binding against the reference (TDP-43 1-414) | binding against the reference (TDP-43 NTD, 1-80 [1]) | binding against the reference (TDP-43 NTD, 1-80 [2])
1 | TDP-43 1-414 (from UniProt Q13148) TDP1-414(pS48) | weaker | – | –
2 | TDP-43 NTD, 1-80 (from UniProt Q13148) TDP1-80(pS48) | – | weaker | weaker
